± gives the uncertainty stated by the source.
Assay: self-splicing fitness, log relative to wild type (ln ratio); higher = more splicing; Tetrahymena group I intron in knt gene, E. coli kanamycin selection, DiMSum; sequences stand for … in CUCUCU…GGAGGGAAAAGUUAUCAGGCAUGCACCUGGUAGCUAGUCUUUAAACCAAUAGAUUGCAUCGGUUUAAAAGGCAAGACCGUCAAAUUGCGGGAAAGGGGUCAACAGCCGUUCAGUACCAAGUCUCAGGGGAAACUUUGAGAUGGCCUUGCAAAGGGUAUGGUAAUAAGCUGACGGACAUGGUCCUAACCACGCAGCCAAGUCCUAAGUCAACAGAUCUUCUGUUGAUAUGGAUGCAGUUCACAGACUAAAUGUCGGUCGGGGAAGAUGUAUUCUUCUCAUAAGAUAUAGUCGGACCUCUCCUUAAUGGGAGCUAGCGGAUGAAGUGAUGCAACACUGGAGCCGCUGGGAACUAAUUUGUAUGCGAAAGUAUAUUGAUUAGUUUUGGAGUACUCGUGGUCG
Outline: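 The eight P1ex-region nucleotides of an intron in the knt kanamycin-resistance gene on pET-22b(+) were all randomised and the library put into E. coli BL21(DE3). Six replicate transformations were grown overnight at 37°C or 30°C on LB agar with or without 25 μg/mL kanamycin, together with 100 μg/mL carbenicillin, 50 μM IPTG and 0.2% rhamnose. Colonies were pooled and amplicon-sequenced on an Illumina HiSeq 2500. Fitness from DiMSum is the error-weighted combination of wild-type-normalised replicate fold changes, kanamycin over none.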

| Sequence | self-splicing fitness (ln) (30 °C) | self-splicing fitness (ln) (37 °C) |
| --- | --- | --- |
| GACAAGCAAUAUUACGUCAA | -2.87 ± 0.15 | -1.95 ± 0.1 |
| GACAAGCAAUAUUACGUCUG | -3.26 ± 0.16 | -2.89 ± 0.15 |
| GACAAGCAAUAUUACGUGAA | -1.81 ± 0.076 | -1.11 ± 0.089 |
| GACAAGCAAUAUUACGUUCA | -1.21 ± 0.074 | -0.263 ± 0.072 |
| GACAAGCAAUAUUACGUUCU | -2.9 ± 0.13 | -1.45 ± 0.12 |
| GACAAGCAAUAUUACGUUUC | -4.22 ± 0.19 | -2.25 ± 0.16 |
| GACCAGCAAUAUUACGAGGA | -1.04 ± 0.12 | -0.408 ± 0.11 |
| GACCAGCAAUAUUACGCAAU | -0.846 ± 0.062 | -0.343 ± 0.077 |
| GACCAGCAAUAUUACGCAGA | -1.57 ± 0.11 | -0.378 ± 0.093 |
| GACCAGCAAUAUUACGCCAU | -3.59 ± 0.17 | -2.09 ± 0.13 |
| GACCAGCAAUAUUACGCCCA | -0.923 ± 0.16 | 0.179 ± 0.19 |
| GACCAGCAAUAUUACGCCUA | -0.572 ± 0.11 | 0.226 ± 0.12 |
| GACCAGCAAUAUUACGCUCG | -0.964 ± 0.13 | -0.766 ± 0.12 |
| GACCAGCAAUAUUACGCUUU | -0.00419 ± 0.078 | -0.213 ± 0.1 |
| GACCAGCAAUAUUACGGAAG | -1.42 ± 0.08 | -0.75 ± 0.088 |
| GACCAGCAAUAUUACGGCGA | -0.195 ± 0.075 | 0.13 ± 0.11 |
| GACCAGCAAUAUUACGGGCA | -0.306 ± 0.078 | 0.16 ± 0.096 |
| GACCAGCAAUAUUACGGGUG | -1.85 ± 0.068 | -1.36 ± 0.072 |
| GACCAGCAAUAUUACGGUGG | -2.38 ± 0.077 | -0.875 ± 0.087 |
| GACCAGCAAUAUUACGGUUC | -5.29 ± 0.25 | -2.73 ± 0.14 |
| GACCAGCAAUAUUACGGUUU | -2.44 ± 0.083 | -0.744 ± 0.079 |
| GACCAGCAAUAUUACGUAGG | -2.31 ± 0.075 | -1.62 ± 0.09 |
| GACCAGCAAUAUUACGUAUG | -1.75 ± 0.065 | -0.824 ± 0.076 |
| GACCAGCAAUAUUACGUCAG | -4.79 ± 0.32 | -2.85 ± 0.27 |
| GACGAGCAAUAUUACGAACA | -0.347 ± 0.3 | -1.44 ± 0.3 |

| Sequence | self-splicing fitness (ln) (30 °C) | self-splicing fitness (ln) (37 °C) |
| --- | --- | --- |
| GACGAGCAAUAUUACGACAC | -3.03 ± 0.49 | -1.55 ± 0.15 |
| GACGAGCAAUAUUACGACUU | -0.586 ± 0.17 | 0.25 ± 0.19 |
| GACGAGCAAUAUUACGAGAG | -3.77 ± 0.34 | -0.809 ± 0.18 |
| GACGAGCAAUAUUACGAGCG | -1.88 ± 0.23 |  |
| GACGAGCAAUAUUACGAGGG | -3.12 ± 0.25 | -2.97 ± 0.35 |
| GACGAGCAAUAUUACGAUAA |  | -2.09 ± 0.43 |
| GACGAGCAAUAUUACGAUAC | -4.85 ± 0.28 | -2.16 ± 0.2 |
| GACGAGCAAUAUUACGAUAG |  | -3.92 ± 0.46 |
| GACGAGCAAUAUUACGAUCU | -2.04 ± 0.15 | -1.13 ± 0.15 |
| GACGAGCAAUAUUACGAUUG | -4.17 ± 0.27 | -1.09 ± 0.13 |
| GACGAGCAAUAUUACGCACG | -3.63 ± 0.23 | -2.61 ± 0.25 |
| GACGAGCAAUAUUACGCGAU | -2.42 ± 0.26 | -2.36 ± 0.45 |
| GACGAGCAAUAUUACGGAGA |  | -2.9 ± 0.38 |
| GACGAGCAAUAUUACGGCAU | -1.4 ± 0.14 | -0.955 ± 0.17 |
| GACGAGCAAUAUUACGGUGA | -3.52 ± 0.23 | -2.05 ± 0.26 |
| GACGAGCAAUAUUACGGUUG | -2.82 ± 0.13 | -1.76 ± 0.13 |
| GACGAGCAAUAUUACGUCCG | -3.22 ± 0.27 | -2.69 ± 0.36 |
| GACGAGCAAUAUUACGUCGC | -3.25 ± 0.47 | -0.634 ± 0.35 |
| GACGAGCAAUAUUACGUGUU | -3.18 ± 0.16 | -3.09 ± 0.19 |
| GACUAGCAAUAUUACGAACA | -1.02 ± 0.16 | -0.254 ± 0.17 |
| GACUAGCAAUAUUACGACCA | -0.781 ± 0.17 | 0.287 ± 0.18 |
| GACUAGCAAUAUUACGACCU | 0.114 ± 0.093 | -0.756 ± 0.095 |
| GACUAGCAAUAUUACGACUU | 0.355 ± 0.06 | 0.58 ± 0.08 |
| GACUAGCAAUAUUACGAGCG | -1.57 ± 0.1 | -0.592 ± 0.12 |
| GACUAGCAAUAUUACGCACU | -0.55 ± 0.11 | 0.415 ± 0.16 |

| Sequence | self-splicing fitness (ln) (30 °C) | self-splicing fitness (ln) (37 °C) |
| --- | --- | --- |
| GACUAGCAAUAUUACGCAGU | -3.21 ± 0.31 | -2.17 ± 0.2 |
| GACUAGCAAUAUUACGCCCA | -0.026 ± 0.17 | 0.443 ± 0.24 |
| GACUAGCAAUAUUACGCGCC | -2.11 ± 0.32 | -0.0214 ± 0.39 |
| GACUAGCAAUAUUACGGAUU | -0.975 ± 0.066 | -0.588 ± 0.092 |
| GACUAGCAAUAUUACGGGAG | -0.663 ± 0.096 | 0.0641 ± 0.12 |
| GACUAGCAAUAUUACGGGUU | -3.92 ± 0.24 | -2.74 ± 0.27 |
| GACUAGCAAUAUUACGGUAC | -2.1 ± 0.2 | -1.2 ± 0.18 |
| GACUAGCAAUAUUACGGUCG | -2.05 ± 0.09 | -0.165 ± 0.1 |
| GACUAGCAAUAUUACGGUUU | -1.7 ± 0.092 | -1.53 ± 0.11 |
| GACUAGCAAUAUUACGUAAG | -0.946 ± 0.087 | -0.709 ± 0.11 |
| GACUAGCAAUAUUACGUACU | -1.13 ± 0.094 | -0.372 ± 0.14 |
| GACUAGCAAUAUUACGUUGC | -2.56 ± 0.12 | -2.5 ± 0.2 |
| GACUAGCAAUAUUACGUUUC | -2.3 ± 0.12 | -2.84 ± 0.18 |
| GAGAAGCAAUAUUACGAAUU | -2.27 ± 0.14 | -1.13 ± 0.15 |
| GAGAAGCAAUAUUACGACCC | -1.83 ± 0.38 |  |
| GAGAAGCAAUAUUACGACGA | -0.554 ± 0.066 | -0.104 ± 0.09 |
| GAGAAGCAAUAUUACGAGAA | -2.75 ± 0.47 | -0.703 ± 0.35 |
| GAGAAGCAAUAUUACGAGGU | -3.47 ± 0.33 | -3.9 ± 0.46 |
| GAGAAGCAAUAUUACGAGUU | -1.95 ± 0.12 | -1.63 ± 0.13 |
| GAGAAGCAAUAUUACGAUCC | -1.9 ± 0.26 | -0.963 ± 0.43 |
| GAGAAGCAAUAUUACGAUUG | -2.76 ± 0.22 | -1.49 ± 0.23 |
| GAGAAGCAAUAUUACGCACG | -0.497 ± 0.14 | -0.392 ± 0.15 |
| GAGAAGCAAUAUUACGCCAA | -0.505 ± 0.27 | -2.17 ± 0.22 |
| GAGAAGCAAUAUUACGCCCA | -0.503 ± 0.2 | -0.351 ± 0.18 |
| GAGAAGCAAUAUUACGCGAU | -2.81 ± 0.27 | -2.48 ± 0.33 |

| Sequence | self-splicing fitness (ln) (30 °C) | self-splicing fitness (ln) (37 °C) |
| --- | --- | --- |
| GAGAAGCAAUAUUACGCGGA | -2.51 ± 0.22 | -1.39 ± 0.17 |
| GAGAAGCAAUAUUACGCUCA | -1.29 ± 0.16 | -1.13 ± 0.15 |
| GAGAAGCAAUAUUACGGAGC | -3.83 ± 0.4 | -1.84 ± 0.23 |
| GAGAAGCAAUAUUACGGAUC | -2.34 ± 0.34 | -1.97 ± 0.4 |
| GAGAAGCAAUAUUACGGAUU | -2.77 ± 0.11 | -1.63 ± 0.11 |
| GAGAAGCAAUAUUACGGCCA | -0.417 ± 0.16 | -0.286 ± 0.17 |
| GAGAAGCAAUAUUACGGGCG | -1.52 ± 0.14 | -0.609 ± 0.13 |
| GAGAAGCAAUAUUACGGGGG |  | -1.8 ± 0.47 |
| GAGAAGCAAUAUUACGGUAG | -3.75 ± 0.29 | -2.68 ± 0.24 |
| GAGAAGCAAUAUUACGGUGC | -2.81 ± 0.19 | 0.59 ± 0.21 |
| GAGAAGCAAUAUUACGGUUC | -2.91 ± 0.13 | -1.5 ± 0.13 |
| GAGAAGCAAUAUUACGGUUU | -1.07 ± 0.099 | -1.21 ± 0.14 |
| GAGAAGCAAUAUUACGUACU | 0.0719 ± 0.08 | 0.0321 ± 0.11 |
| GAGAAGCAAUAUUACGUCCG | -1.48 ± 0.091 | -0.864 ± 0.1 |
| GAGAAGCAAUAUUACGUCUG | -0.739 ± 0.13 | 0.277 ± 0.15 |
| GAGAAGCAAUAUUACGUGGG | -2.74 ± 0.14 | -2.29 ± 0.19 |
| GAGAAGCAAUAUUACGUUCU | -4 ± 0.36 | -2.01 ± 0.23 |
| GAGAAGCAAUAUUACGUUUG | -2.98 ± 0.11 | -1.85 ± 0.14 |
| GAGCAGCAAUAUUACGAACU | -1.17 ± 0.12 | -0.227 ± 0.17 |
| GAGCAGCAAUAUUACGACCU | -1.22 ± 0.17 | 0.00279 ± 0.23 |
| GAGCAGCAAUAUUACGAGCU | -2.58 ± 0.12 | -1.88 ± 0.18 |
| GAGCAGCAAUAUUACGAUAU | -2.17 ± 0.13 | -1.17 ± 0.15 |
